Series [1] concerns BJ cells. In words: Reprogramming of human fibroblasts scored by TRA-1-60+ colonies/clusters. The series is classed as cell-based. Particulars: for reprogramming activity (TRA-1-60+ colonies): used with 3F in BJ cells, compared to OSK-GFP control. How it is done:
Briefly (FIG. 1A), 2×10^4 of BJ cells were seeded in each well of a 24-well plates. The second day, fibroblasts were transduced with OCT4 (10 MOI), SOX2 (5 MOI), KLF4 (5 MOI) along with 250 μl of individual kinase viral supernatant freshly packaged in one well of a 6-well plate. Twenty-two cDNAs were evaluated in one 24-well plate. One well is OSK control, and one well of cells is transduced with OSK plus 250 μl of GFP viral supernatant as a second control. Virus was removed next day with fresh fibroblast medium. Forty-eight hours after transduction, fibroblasts were transferred from one well into a 60-mm dish for continued reprogramming. The next day of re-seeding, fibroblast medium was replaced with E7 medium (E8 minus TGF beta) plus 100 μM of sodium butyrate. From day 18 of reprogramming on, E8 media was used. On day 25 of reprogramming, reprogramming dishes were stained for ALP or TRA-1-60 markers.
• Concentration of virus: The reprogramming viruses (OCT4, SOX2, KLF4, MYC and BET members) were concentrated before use except for library viruses. The lentiviral supernatant was centrifuged at 3,000×g for 10 mins at 4° C. to remove the cell debris. Thirty ml of the viral supernatant was then transferred into each 50-ml tube. 7 ml of 50% PEG-6000 stock solution (final concentration of 8.5%) and 4.1 ml of 4 M NaCl stock solution was added to each tube (final concentration of 0.4 M). The virus mixture was stored at 4° C. for 3-5 h.
• Cell culture and reprogramming: Human fibroblast cells (BJ ATCC CRL-2522®) were cultured in fibroblast medium: DMEM, 10% heat-inactivated FBS, 0.1 mM 2-mercaptoethanol, 100 U/ml penicillin, 100 μg/ml streptomycin, 0.1 mM MEM NEAA and 4 ng/ml human bFGF. For reprogramming, seed BJ cells into 24-well plate at 2×10^4 cells/well. Twenty-four hours after plating, pre-mix the OSK (OCT4, 10 MOI; SOX2, 5 MOI and KLF4, 5 MOI) viruses (shown in FIGS. 6B-6D, SEQ ID NO: 58-60, respectively), and add the OSK virus along with 250 μl supernatant of individual kinase virus into respective wells. Incubate overnight. Next morning, remove viruses by replacing virus-containing medium with fresh fibroblast medium. Twenty-four hours after transduction, the cells were re-seeded from one well into one matrigel-coated 60-mm dish. Next day, replace fibroblast medium with reprogramming media (E7 plus sodium butyrate at 100 μM). On 18 day, start to use E8 media. On day 25 of reprogramming, stain the reprogramming cells for alkaline phosphatase or TRA-1-60.

In series [2] the target is T1, tetra-acetylated H4 (H4K5/8/12/16Ac) (Homo sapiens, UniProt P62805).
T1 construct: Histone tails used for peptide pull-down experiments; Peg-biotin (chemical label); incubated with lysate of human BJ fibroblasts transduced with BRD3R or BRD3 virus
Put plainly: Histone peptide pull-down assay. The series is classed as binding. Particulars: lysates of human fibroblasts overexpressing BRD3R or BRD3; western with BRD3 antibody. On the procedure: • Histone peptide pull-down assay: H3 or H4 histone tails with 8 different acetylation modifications were evaluated for binding with BRD3R and BRD3. One unmodified tail for each histone was used for negative control.
Human BJ fibroblasts were transduced with BRD3 or BRD3R viruses. Three days post-transduction, cells were lysed by non-denaturing lysis buffer (20 mM HEPES pH 7.9, 150 mM NaCl, 1 mM MgCl2, 0.5% NP40, 10 mM NaF, 0.2 mM NaVO4, 10 mM β-glycerol phosphate, 5% glycerol, 1 mM DTT, 1 mM PMSF and protease inhibitors). Twenty μg of the cell lysates were incubated with 1 μg biotinylated peptide in 300 μl binding buffer (50 mM Tris pH 7.5, 150 mM NaCl, 0.1% NP-40, 1 mM PMSF and protease inhibitors) at 4° C. for overnight. The next day, 30 μl of Dynabeads M-280 Streptavidin was added into each sample (Invitrogen, 11205D). The mixture of proteins, antibodies and beads were further incubated with gentle rotation at 4° C. for 1 h. The beads were then washed with binding buffer three times. The bound proteins were resuspended in 60 μl of 2× SDS sample buffer. The pull-down proteins were analyzed by western using antibody of BRD3 (Proteintech, 11859-1-AP). Two micrograms of cell lysates were loaded as input control. For semi-quantification, band density was normalized to the corresponding inputs.

Series [3] relates to BJ cells. In words: Sensitivity test of the optimized small-vessel reprogramming protocol (ALP staining). The series is classed as cell-based, human. Particulars: n=3. An excerpt: • Optimization of screening protocol: Several strategies to make the screening of cDNA library more efficient and sensitive were used. First, the lentiviral reprogramming vector was modified so that it is more efficient and consistent in reprogramming human cells. This was achieved by using EF1a promoter and co-expression of GFP, which makes titration of viral vectors easier and faster. Second, the efficient Gateway cloning was used to transfer the human kinase library onto the modified lentiviral destination vector. 24 randomly selected of the 89 cloned cDNAs were sequenced, and verified precise cloning for all of the 24 genes. Third, a protocol to simultaneously package 24×n individual transgene viruses in individual wells of 6-well plates was established. The kinase virus was not concentrated and the supernatant directly used in screening protocol. Almost 100% of transduction of BJ cells in one well of a 24-well plate with 250 μl of supernatant using GFP reporter construct on the same destination vector (FIGS. 6J and 6K) was achieved. […] To test the sensitivity of the new screening protocols, the reprogramming activities of two established reprogramming factors: NANOG and LIN28, were evaluated. […]
Briefly (FIG. 1A), 2×10^4 of BJ cells were seeded in each well of a 24-well plates. […] Twenty-two cDNAs were evaluated in one 24-well plate. […]

The next series concerns BRD3R mRNA. Put plainly: Knockdown of BRD3R mRNA by shRNA (RT-qPCR). The series is classed as cell-based, human. How it is done: • shRNA cloning: BRD3R shRNAs at XbaI and HpaI sites on the shRNA vector PLVH-U6-EF1a-AcGFP were cloned. Correct cloning was verified by sequencing. An shRNA targeting the firefly luciferase was used as a control.
• RT-qPCR: Cells were harvested with Trizol reagent and stored at −80° C. until use. Total RNA was extracted using the Direct-zol™ Miniprep kit (R2052). cDNA was prepared using the M-MLV reverse transcriptase (cat #28025-013) per manufacturer's instruction. Quantitative PCR was performed on ViiA 7 Real-time PCR system (Applied Biosystem) using SYBR-Green Master PCR mix (Clontech, Cat #639676) in triplicates. All quantifications were normalized to an endogenous GAPDH control.
(In general: Real-time PCR tracks product formation cycle by cycle.)

In the case of BRD2: BET subfamily bromodomain protein, the “reprogramming activity (TRA-1-60+ colonies)” value with BJ cells [1] is reported as “none did”.

For the molecule “BRD3: canonical BRD3 (NP_031397; 726 aa, SEQ ID NO: 45), BET bromodomain protein”, in series [2], the “binding to H4K5/8/12/16Ac peptide” value was “weaker than BRD3R”. Besides, the “reprogramming activity (TRA-1-60+ colonies)” value in the series on BJ cells [1] is listed as “none did”.

Take “NANOG: established reprogramming factor [reference compound]”: the “increase in reprogramming efficiency” value in the series on BJ cells [3] was found to be 5.1 ×.

B1: BRD3R shRNA: shRNA that specifically targets BRD3R (SEQ ID NO: 42 and 43) (nucleic acid)
chain 1: CTAGGAACCTCTGTAATTGTTTCCTGGCTCGAGCCAGGAAACAATTACAGAGGTTCTTTTTT
chain 2: AAAAAAGAACCTCTGTAATTGTTTCCTGGCTCGAGCCAGGAAACAATTACAGAGGTTC
Consider B1, for which the “knockdown of BRD3R mRNA” value with BRD3R mRNA is listed as “significant knockdown”. In addition, the impairment of reprogramming in the series with BJ cells [1] (BRD3R knockdown by shRNA, TRA-1-60 staining) is reported as 58%.

B2: LIN28: established reprogramming factor (protein, UniProt Q9H9Z2 2-209, looked up)
Protein lin-28 homolog A: GSVSNQQFAGGCAKAAEEAPEEAPEDAARAADEPQLLHGAGICKWFNVRMGFGFLSMTARAGVALDPPVDVFVHQSKLHMEGFRSLKEGEAVEFTFKKSAKGLESIRVTGPGGVFCIGSERRPKGKSMQKRRSKGDRCYNCGGLDHHAKECKLPPQPKKCHFCQSISHMVASCPLKAQQGPSAQGKPTYFREEEEEIHSPTLLPEAQN
Turning to B2, in the series on BJ cells [3], the “increase in reprogramming efficiency” value came to 2.4 ×.
